Experiment [1] deals with CD74 (MHC class II invariant chain) of DR*1501-Tg mouse splenocytes and monocytes (mouse) (UniProt P04441).
For experiment [2], the target named is low affinity binding site for RTL on DR*1501-Tg mouse splenocytes. The experiment in a line: competition of unlabeled construct with labeled RTL1000 (280 nM) on DR*1501-Tg splenocytes; low affinity site.
Experiment [3] has as its target high affinity binding site for RTL on DR*1501-Tg mouse splenocytes. Nature of the experiment: competition of unlabeled construct with labeled RTL1000 (280 nM) on DR*1501-Tg splenocytes; high affinity site.
Experiment [4] shares this target. Nature of the experiment: saturation binding to 2 million spleen cells on ice; urea lysis, SDS-PAGE, fluorescence densitometry; two-site fit.
Experiment [5] has as its target low affinity binding site for RTL on DR*1501-Tg mouse splenocytes. The description is as above.
The target in experiment [6] is low affinity binding site for RTL on MHC class II deficient mouse splenocytes. Nature of the experiment: competition of unlabeled construct with labeled RTL1000 on MHC class II deficient mouse splenocytes; low affinity site.
Experiment [7] concerns the target four-domain MHC class II from DR*1501-Tg mice (human transgene expressed in mouse). The experiment in a line: direct saturation binding of FITC-labeled construct to MHC class II immuno-adsorbed on Protein L/L243 beads; one-site fit.
The target of a further experiment is Histone complex (Sigma). Nature of the experiment: SPR (Biacore 3000), histone complex amine coupled to CM5 chip, RTL1000 injected; 1:1 Langmuir model with drifting baseline. For orientation: SPR reads the build-up and loss of mass on a sensor chip optically.
The target in experiment [8] is RTL binding sites on CD11b+ monocytes of DR*1501-Tg mice. Nature of the experiment: flow cytometry; naive CD11b+ monocytes incubated with 1 µg RTL1000 FITC (1 hour at 37 °C by the text); upper row of panels. On the technique in general: A flow cytometer gives signals particle by particle.
Experiment [9] shares this target. Nature of the experiment: flow cytometry; naive CD11b+ monocytes incubated with 5 µg RTL1000 FITC (1 hour at 37 °C by the text); upper row of panels.
Experiment [10] addresses low affinity binding site for RTL on MHC class II deficient mouse splenocytes. Nature of the experiment: competition on whole cells of MHC class II knockout mice: labeled RTL1000 against increasing unlabeled RTL1000; SDS-PAGE fluorescence densitometry.
Experiment [11] has as its target RTL binding sites on CD11c+ cells of DR*1501-Tg mouse blood. Nature of the experiment: flow cytometry; blood of naive DR*1501-Tg mice 15 minutes after injection of 500 µg FITC-labeled RTL; monocyte gate, live cells; No RTL (pre-injection) panel 0.12%.
In experiment [12] the target is RTL binding sites on CD19+ cells of DR*1501-Tg mouse blood. The experiment is described as above.
The target in experiment [13] is RTL binding sites on CD3+ cells of DR*1501-Tg mouse blood. Described as above.
Experiment [14] addresses RTL binding sites on CD11b+ monocytes of DR*1501-Tg mice. The experiment in a line: flow cytometry; blood of naive DR*1501-Tg mice 15 minutes after injection of 500 µg FITC-labeled RTL; monocyte gate, live cells; No RTL (pre-injection) panel 0.14%.
For experiment [15] the target is unchanged. Nature of the experiment: flow cytometry; blood of naive DR*1501-Tg mice 15 minutes after injection of 500 µg FITC-labeled RTL; LYMPHOCYTE gate, live cells; No RTL (pre-injection) panel 0.00%.
Experiment [16] addresses RTL binding sites on CD11c+ cells of DR*1501-Tg mouse blood. Nature of the experiment: flow cytometry; blood of naive DR*1501-Tg mice 15 minutes after injection of 500 µg FITC-labeled RTL; lymphocyte gate, live cells; No RTL (pre-injection) panel 0.00%.
The target of experiment [17] is RTL binding sites on CD19+ cells of DR*1501-Tg mouse blood. Described as above.
Experiment [18] has as its target RTL binding sites on CD3+ cells of DR*1501-Tg mouse blood. Nature of the experiment: flow cytometry; blood of naive DR*1501-Tg mice 15 minutes after injection of 500 µg FITC-labeled RTL; lymphocyte gate, live cells; No RTL (pre-injection) panel 0.05%.
The target in experiment [19] is RTL binding sites on CD19+ cells of DR*1501-Tg mouse blood. The experiment in a line: flow cytometry; blood of naive DR*1501-Tg mice incubated in vitro with FITC-labeled RTL (legend: 500 µg), 90 minutes post-treatment; monocyte gate; No RTL (pre-treatment) panel 0.00%.
Experiment [20] concerns the target RTL binding sites on CD3+ cells of DR*1501-Tg mouse blood. The experiment is described as above.
Experiment [21] concerns the target RTL binding sites on CD11b+ monocytes of DR*1501-Tg mice. The experiment in a line: flow cytometry; blood of naive DR*1501-Tg mice incubated in vitro with FITC-labeled RTL (legend: 500 µg), 90 minutes post-treatment; monocyte gate; No RTL (pre-treatment) panel 0.07%.
For experiment [22], the target named is RTL binding sites on CD11c+ cells of DR*1501-Tg mouse blood. Nature of the experiment: flow cytometry; blood of naive DR*1501-Tg mice incubated in vitro with FITC-labeled RTL (legend: 500 µg), 90 minutes post-treatment; monocyte gate; No RTL (pre-treatment) panel 0.09%.
The target of experiment [23] is RTL binding sites on CD11b+ monocytes of DR*1501-Tg mice. The experiment in a line: flow cytometry; blood of naive DR*1501-Tg mice incubated in vitro with FITC-labeled RTL (legend: 500 µg), 90 minutes post-treatment; LYMPHOCYTE gate; No RTL (pre-treatment) panel 0.00%.
Experiment [24] has as its target RTL binding sites on CD11c+ cells of DR*1501-Tg mouse blood. The experiment in a line: flow cytometry; blood of naive DR*1501-Tg mice incubated in vitro with FITC-labeled RTL (legend: 500 µg), 90 minutes post-treatment; lymphocyte gate; No RTL (pre-treatment) panel 0.00%.
Experiment [25] deals with RTL binding sites on CD19+ cells of DR*1501-Tg mouse blood. Described as above.
In experiment [26] the target is RTL binding sites on CD3+ cells of DR*1501-Tg mouse blood. The experiment is described as above.
In experiment [27] the test system is mMOG-35-55-induced EAE in DR*1501-Tg mice.
Experiment [28] concerns the target low affinity binding site for RTL on MHC class II deficient mouse splenocytes. The experiment in a line: competition on whole cells of MHC class II knockout mice: labeled RTL1000 against increasing unlabeled RTL340; SDS-PAGE fluorescence densitometry.
Experiment [29] addresses T1, CD74 (MHC class II invariant chain) of DR*1501-Tg mouse splenocytes and monocytes (mouse, UniProt P04441-2 1-215, limits assumed, surface biotinylated in the immunoprecipitation experiments).
T1 construct: Native protein from mouse cells; also called p31
T1 sequence (looked up): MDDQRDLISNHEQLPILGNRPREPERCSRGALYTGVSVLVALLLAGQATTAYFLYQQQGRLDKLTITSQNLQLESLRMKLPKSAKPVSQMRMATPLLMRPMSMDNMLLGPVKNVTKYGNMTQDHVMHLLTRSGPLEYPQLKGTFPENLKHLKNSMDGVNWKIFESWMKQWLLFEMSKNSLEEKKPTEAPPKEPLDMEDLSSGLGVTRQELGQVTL
Nature of the experiment: competition of unlabeled DR-α1 with FITC-labeled RTL1000 (320 nM) for immunoprecipitated CD74; gel densitometry; one-site competition fit.

Experiment [30] addresses T1, CD74 (MHC class II invariant chain) of …. The experiment in a line: direct saturation binding of FITC-labeled construct to CD74 immuno-adsorbed on Protein L/ln-1 beads; SDS-PAGE densitometry; one-site fit.
[31] abbreviates: free peptide 10 μg i.v. daily for 5 days from onset.

In experiment [1], RTL1000 (pDR2/hMOG-35-55) (peptide-MHC) had a CD74 expression on naive CD11b+ monocytes after 1 µg RTL1000: % of cells in the upper right quadrant (CD11b APC+, CD74 PE+) of 42%. Further, the CD74 expression on naive CD11b+ monocytes after 5 µg RTL1000: % of cells in the upper right quadrant (CD11b APC+, CD74 PE+) in experiment [1] is 9.84%. In experiment [1], this molecule showed a CD74 expression on naive CD11b+ monocytes after 10 µg RTL1000: % of cells in the upper right quadrant (CD11b APC+, CD74 PE+) of 7.32%. The concentration for a half-maximal effect (EC50) in [2] was determined as 11 nM; in experiment [3], 4000 nM; in experiment [6], 71.1 nM. For the same molecule, the Kd was 2.65 nM in [4], 131 nM in experiment [5], 1.14 nM in experiment [7] and 575 nM with Histone complex (Sigma). Further, the results for the % of cells in the upper right quadrant (CD11b APC+, RTL1000 FITC+) in experiment [8] and in [9] were 55.8% and 69.5%, respectively. The same molecule returned an IC50 (read off the curve) in experiment [10] of 40 nM. The % of cells in the upper right quadrant (CD11c APC+, RTL FITC+) was 9.26% in experiment [11], 4.63% in experiment [16], 6.77% in [22] and 4.4% in experiment [24]. The % of cells in the upper right quadrant (CD19 APC+, RTL FITC+) in experiment [12] was 3.93%; in [17] it was 0.82%; in [19], 5.82%; in experiment [25] it was 1.26%. The % of cells in the upper right quadrant (CD3 PE+, RTL FITC+) came to 0.36% in experiment [13], 0.16% in experiment [18], 4.01% in experiment [20] and 1.49% in [26]. The % of cells in the upper right quadrant (CD11b PE+, RTL FITC+) in experiment [14] was determined as 44.4%; in experiment [15] it was 9.23%; in [21] it was 38.6%; in experiment [23], 3.96%.
For “mMOG-35-55 peptide: free mouse MOG-35-55 peptide, MEVGWYRSPFSRVVHLYRNGK (SEQ ID NO: 50) (Synthetic peptide - mouse MOG 35-55) [reference compound]”, in experiment [27] (setting [31]), the CDI is listed as 31.5 ± 9.8, the Incidence is reported as 5/5, the Mortality is 0 and the Onset is given as 11.2 ± 1.2. In [27] (setting [31]), this molecule registered a Peak of 3.0 ± 0.9. Besides, the “effect on EAE (in words)” value in experiment [27] (mMOG-35-55-induced EAE) is given as “did not produce significant inhibition of EAE”.
For the molecule RTL340 (pDR2/MBP-85-99) (peptide-MHC), the EC50 worked out at 140 nM in experiment [2] and 43.2 nM in experiment [6]. Moreover, in experiment [28], the IC50 (read off the curve) came out at 60 nM.

B1: DR-α1 domain alone (no DR2-β1 domain or peptide) (other, UniProt P01903 26-109, looked up)
chain: IKEEHVIIQAEFYLNPDQSGEFMFDFDGDEIFHVDMAKKETVWRLEEFGRFASFEAQGALANIAVDKANLEIMTKRSNYTPITN
modifications: labeled with FITC in the direct binding assays
notes: domain: α1
For the molecule B1, in experiment [29], the response was half-maximal at 447 nM (EC50). The dissociation constant Kd in experiment [30] came out at 2.95 nM.

The EC50 is the midpoint of the concentration-response curve. A high value points to a need for much substance. The term Kd denotes the equilibrium constant for the complex coming apart. The low end stands for tighter binding, the high end for weaker binding.
